Laboratory results reported in a protein production outcome set (Wang et al. 2014).

Assay: label from the status in PepcDB records
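Also: failed if final PepcDB status was selected cloned or expressed and not failed if soluble or beyond.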

Row | Sequence | protein production
1 | MLNEIVVFFSILVSSWNIYNSALSFYGLTWRVNQKIEYSDKTFSILVPAKNEEKVLGRLLDRLINQEYDKSKYEIIVVEDGSTDRTFQICKNYEENYDNVRCVKLDKSNVPNGKSRALNYAMKLAKFDIIGVFDADTFPRLDVLSYVSGSFDSDNVVAVQGKLIPINVRESIIARFASLEELFNEYSIGGRARFGLFVPLEGTCTFVKKSIIEEMGGWNEYSLTEDLDLSVKLTSAGYKIMYNPNVVAWREVASSLRWLIKQRLRWYRGHFEISLSMPKKIDPRIFDGILLIGTPIFMLMNLVNYSLVLIYQTPLFVVTMVIVSTATLLSFITAVGISRKHLIEYQYSILSLIYMNFVMLLNVTAVFLEIVRVPRVWIKTERSGKISVPEV | failed
2 | MQEGNFKAGTYSAARQGIGGDVTVTLDIDAQGKVLKSTIDALEETPEVGGEAAIELAKTMTEKQSIQVDGVSGATMTSGAVHEAAEDAYSQAKANLEHHHHHH | not failed
3 | MSDSATEYDKLFIGGKWTKPSTSDVIEVRCPATGEYVGKVPMAAAADVDAAVAAARAAFDNGPWPSTPPHERAAVIAAAVKMLAERKDLFTKLLAAETGQPPTIIETMHWMGSMGAMNYFAGAADKVTWTETRTGSYGQSIVSREPVGVVGAIVAWNVPLFLAVNKIAPALLAGCTIVLKPAAETPLTANALAEVFAEVGLPEGVLSVVPGGIETGQALTSNPDIDMFTFTGSSAVGREVGRRAAEMLKPCTLELGGKSAAIILEDVDLAAAIPMMVFSGVMNAGQGCVNQTRILAPRSRYDEIVAAVTNFVTALPVGPPSDPAAQIGPLISEKQRTRVEGYIAKGIEEGARLVCGGGRPEGLDNGFFIQPTVFADVDNKMTIAQEEIFGPVLAIIPYDTEEDAIAIANDSVYGLAGSVWTTDVPKGIKISQQIRTGTYGINWYAFDPGSPFGGYKNSGIGRENGPEGVEHFTQQKSVLLPMGYTVA | not failed
4 | MLSNGKCRNNKNQVNGSLSPKMFYMRINDQIVTKYHKILTKKIREVVGTLQQPWESRRIKQAPQQPQETTSATITCDRSHTNYDLCSINGSCNLDLKTGTLTLMDPTSAPLVEKIRPYPKKADNWIMPRIRELTLTSGPLGLPRSCDITHDLPAIVFSAGGYTGSIYHDLMDGFIPLFITANSVYPDRDFIPVVVNAKEWWMPKYIDILGTFSKHKPILLLDKESVATTHCFTSAIVGLITHWPMTIDPTQIPNSKSLVDFHNLLEKAFTTNISTPKTHKPRLMLVSRYGNIGRVILNEQEIKEMLEDVGFEVIIFRPSKTTNLKEAYKLIKSSHGMVGVHGAALTHLLFLRPGSIFVQVVPLGLGWASKPCYESPAKTMKLEYLEYKVNVEESSLIEKYNRDDLVLKDPIAYRGMDWNATKMKVYLKEQDVSLDVNRFRKHMNEAYKKAKIFMDING | failed
5 | QDVPVTQVMTPRPVVFRVDATMTINEFLDKHKDTPFSRPLVYSEQKDNIIGFVHRLELFKMQQSGSGQKQLGAVMRPIQVVLNNTALPKVFDQMMTHRLQLALVVDEYGTVLGLVTLEDIFEHLVGE | not failed
6 | MPGYQKTKDVGHFLSVTGTVIRTSLVKVLEFERDYMCNKCKHVFVIKADFEQYYTFCRPSSCPSLESCDSSKFTCLSGLSSSPTRCRDYQEIKIQEQVQRLSVGSIPRSMKVILEDDLVDSCKSGDDLTIYGIVMQRWKPFQQDVRCEVEIVLKANYIQVNNEQSSGIIMDEEVQKEFEDFWEYYKSDPFAGRNVILASLCPQVFGMYLVKLAVAMVLAGGIQRTDATGTRVRGESHLLLVGDPGTGKSQFLKYAAKITPRSVLTTGIGSTSAGIVLNCTVSPGSLVCKLNTRTTILAATNPKGQYDPQESVSVNIALGSPLLSRFDLILVLLDTKNEDWDRIISSFILENKGYPSKSEKLWSMEKMKTYFCLIRNLQPTLSDVGNQVLLRYYQMQRQSDCRNAARTTIRLLESLIRLAEAHARLMFRDTVTLEDAITVVSVMESSMEVHC | failed
7 | MSLTKLYYEDQYIKEFKGEIIEVKEIDGKFHVLLDQTAFFPGGGGQMGDLGLIDGIKVLDVYEEEGKVYHVLEKEPKKLKNLQCELDWERRFDGMQQHLGQHLLSGCFYDLFGANTCGFHLGKEISTVDIVGFLDEKTIREAEKEANRLIFENLEVKSYAPSKKELKKVKTRRALPKTDEEIRIVEIVGLDLNACCGVHPRNTRDLQVIKIRRWEKHKNATRIEYVAGNRAVSEGHHHHHH | not failed
8 | HDVIFHIRAKGKNQKLLLSAHPSYSRVHITAQAYENPSEPPMFCMLLRKHIEGGFIEKIEQAGLDRIMIFHIKSRNEIGDETVRKLYVEIMGRHSNIILTDAAENVIIDGLKHLSPSMNSYRTVLPGQDYKLPPAQDKISPLEASEDDILRHLSFQEGRLDKQIVDHFSGVSPLFAKEAVHRAGLANKVTLPKALLALFAEVKEHRFIPNITTVNGKEYFYLLELTHLKGEARRFDSLSELLDRFYFGKAERDRVKQQAQDLERFVVNERKKNANKIKKLEKTLEYSENAKEFQLYGELLTANLYMLKKGD | failed
9 | MSPIEKSSKLENVCYDIRGPVLKEAKRLEEEGNKVLKLNIGNPAPFGFDAPDEILVDVIRNLPTAQGYCDSKGLYSARKAIMQHYQARGMRDVTVEDIYIGNGVSELIVQAMQALLNSGDEMLVPAPDYPLWTAAVSLSSGKAVHYLCDESSDWFPDLDDIRAKITPRTRGIVIINPNNPTGAVYSKELLMEIVEIARQHNLIIFADEIYDKILYDDAEHHSIAPLAPDLLTITFNGLSKTYRVAGFRQGWMVLNGPKKHAKGYIEGLEMLASMRLCANVPAQHAIQTALGGYQSISEFITPGGRLYEQRNRAWELINDIPGVSCVKPRGALYMFPKIDAKRFNIHDDQKMVLDFLLQEKVLLVQGTAFNWPWPDHFRIVTLPRVDDIELSLSKFARFLSGYHQL | failed
10 | MVTGMFSLGRTYLFRVPEGEELLTYIKNFCKKEGIETAIINGIGTLKNPKIGYFLEEKKEYKVIPLKGSYELISLIGNVSLKDGEPFVHAHVSLGNEEGIVFGGHLVEGEVFVAEIFLQELKGEKIERKPTKYGLALWEELKLLEHHHHHH | not failed
11 | MPSTVSSSRLGLAGLCILLAGQLLPMIDFSIVNVALDALAHSLGASETELELIVAVYGVAFAVCLAMGGRLGDNYGRRRLFVLGVALFAVASLLCGLAGSVWLLLVARALQGVGAALVVPQILATLHVSLSGHAHSRALAAYGAIGGLAFVVGQVLGGFLVSADIGGLGWRSVFLINLPICLGILLCSRRWVPETRAEHAARVDAPGTLLLAALILCLLLPLALGPSLHWSWPCALLLAAAVPLLAWLWRTELRQERRQAWPLLPPSLLRLPSIRFGLLLAILFFACWSGFMFALALALQAGAGLSPVQAGNAFIALGASYFVSALLTARVAARIGPVRLLLLGCVIQMCGLLGLMLTLQRVWPQPGILNLAPATLVIGFGQAFIVSSFFRIGLSEVPAAQAGAGSAMLATVQQASLGLGSALLGAVFAHRLERHGDYLEATQTTLAVEFVLMTLLLGATCLFYLRRVRTVPLRCDSPGN | failed
12 | MNESPKEGAGGAPDYDVWEAEVKSSRGLPLVWLIPLVALGIGIWLAYRTLSEEGPTITLLFKEAPGLEAGKSKIKFKDVEIGTVESVVLNEDLTGVVVTAKMEKHVATHLGENTAFWVVKPELGLGGVSGLDTLMAGNYIAVEFGGGKVVRRFVGLERPPRIKADTPGRSFFLSADNAGPLKYGTPVYFRDIEVGQVVNVGLAEDNRSVQVEIFIDAPYHRLVHNSTRFWQVSGIDLSLSAQGVNLKVGSIMSLLQGGITFETPTLNDPKVQSSEPNTRFRLHKDFASIAEGTYTLRQPYLLFFDDSVRGLNVGAPVELKGIRVGTVTELKLALDFGAHKIRIPVVIEIDPERLIPYGAEEIIERAKKEYKAAMEAGRRPFMEKLVERGLRARLRTGNLLTGQLYVDLDFYPESPPKSLDYSGQYPELPTLPSVADELQRNVTEIIANLKKIPLDKIGQELLGTVQGSNRLLNSPELKGAVGSLNLALKDLRHLAQTADREMVTLTSAAEKSLSSTARVLEQLEPGSAMAVDISNALEELAASARSIRALTDYLERHPEALLHGKGGSGGKP | failed
13 | MKPSLIYMYNINKKQIIISLLSFIFVVAVAFVSLGNYIKQESGEVRQTIIVAFVILVYITFLAMIVIQAVSAFGKMTESTLFRLTSISGKKIVLAILLYAVIYLLIFELIGSIFLYGISMKIIKGTELYEVLFTQSVFNPLKHLFSTMLYVFNLSSILLVLLFSVASVKVFSLKKKKLKYPMVFFLFLLVTKLLGTIYGMLGGLAPAAPLIKKLVYIDESSGADVFLYPEKLMNLYSLSFSIGIFILLVYITGRIIDKKLEV | failed
